Results as given in CN115703833A (BOAOXIN BIOTECHNOLOGY NANJING CO LTD, dated 2023).

Assays:
[1] = target: T1, 人CD47 (表面过表达人CD47的293F细胞) (human, UniProt Q08722 19-323); assay: flow cytometry on 293F cells overexpressing human CD47
T1 construct: whole, on cells; also called 表面过表达人CD47的稳定细胞系293F

[2] = target: T2, 重组人CD47-his蛋白 (ACRO biosystems, cat#CD7-H5227, MW 15.6 kDa) (human, UniProt Q08722 19-139, biotin-labelled in the ELISAs (position not given); unlabelled in Biacore); assay: Biacore T200 SPR; antibody captured by goat anti-mouse IgG on a CM5 chip, CD47-his as analyte
T2 construct: also called 人CD47蛋白; 人CD47-生物素; not shown: his tag
T2 sequence (Q08722 19-139 limits assumed): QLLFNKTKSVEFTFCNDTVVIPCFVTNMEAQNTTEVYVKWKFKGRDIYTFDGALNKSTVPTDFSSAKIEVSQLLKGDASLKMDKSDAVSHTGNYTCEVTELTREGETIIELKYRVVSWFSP

T1 sequence (Q08722 19-323): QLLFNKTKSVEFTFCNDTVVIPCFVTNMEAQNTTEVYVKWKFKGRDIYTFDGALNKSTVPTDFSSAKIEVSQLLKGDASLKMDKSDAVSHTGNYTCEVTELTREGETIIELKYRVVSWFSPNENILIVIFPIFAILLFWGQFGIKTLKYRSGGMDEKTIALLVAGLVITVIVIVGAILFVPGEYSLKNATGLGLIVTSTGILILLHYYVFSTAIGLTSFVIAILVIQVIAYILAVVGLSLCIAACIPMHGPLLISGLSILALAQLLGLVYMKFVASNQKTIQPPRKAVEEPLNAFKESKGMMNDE

binding result [1]: binds
binding result [2]: binds
B1: 本发明的单克隆抗体1D5 (小鼠抗CD47单克隆抗体) (antibody, V domains shown)
VH: EVQLQQSGAELVRSGASVKLSCTASGFNIKDYYMSWVRQRPEQGLEWIGWIDPKNGDTAYDPKFQGKATMTADTSSNTAYLQFSSLTSEDTADYYCNAGGRGGFAYWGQGTLVTVSA
VL: DVLMTQTPLSLPVSLGDQASISCRSNQSIVHSNGYTYLEWYLQKPGQSPKLLIYKVSNRFSGVPDRFSGSGSGTDFTLRISRVEAEDLGVYYCFQGSHVPRTFGGGTKLEIK
notes: Tested as a purified mouse monoclonal antibody from a hybridoma
